According to publication PMC5621659:

Key:
Experiment in all cases: ELISA
[1] = target: recombinant human insulin receptor (IR) (human) (UniProt P06213)
[2] = target: C-terminal truncated apoE3 (aa1-186)
[3] = target: C-terminal truncated apoE4 (aa1-186)

Substance	percent reduction of insulin-IR binding at 16 μg/ml [1]	percent reduction of binding against FL apoE [2]	percent reduction of binding against FL apoE [3]
recombinant human apoE4 (from UniProt P02649 19-317) (natural protein)	50%	–	–
recombinant human insulin receptor (IR) (from UniProt P06213 28-1382)	–	50%	30%
